Measurements published in PMC4482077.

How the values were obtained:
Assay in all cases: AUC
[1] = target: E. faecalis S613 LiaR (wild type, full length) (Enterococcus faecalis S613)
[2] = target: LiaR^(DBD), isolated DNA binding domain of wild-type E. faecalis S613 LiaR (residues 140-206) (Enterococcus faecalis S613)
[3] = target: LiaR^(DBD)D191N, isolated DNA binding domain of E. faecalis S613 LiaR (residues 140-206) with D191N (Enterococcus faecalis S613)
[4] = target: LiaR^D50E (phosphomimetic mutant of E. faecalis S613 LiaR) (Enterococcus faecalis S613)
[5] = target: LiaR^D191N (adaptive mutant of E. faecalis S613 LiaR) (Enterococcus faecalis S613)

For “E. faecalis S613 LiaR (wild type, full length) (natural protein)”, the Kd [1] was 24000 nM and the stoichiometry N [1] was 4.

Work on “LiaR^(DBD), isolated DNA binding domain of wild-type E. faecalis S613 LiaR (residues 140-206) (domain or fragment)” yielded a Kd [2] of 2000 nM and a stoichiometry N [2] of 2.

In the case of “LiaR^(DBD)D191N, isolated DNA binding domain of E. faecalis S613 LiaR (residues 140-206) with D191N (domain or fragment)”, the Kd [3] is reported as under 40 nM and the stoichiometry N [3] is reported as 2.

“LiaR^D50E (phosphomimetic mutant of E. faecalis S613 LiaR) (natural protein)” showed a stoichiometry N [4] of 4.

Substance “LiaR^D191N (adaptive mutant of E. faecalis S613 LiaR) (natural protein)” has a Kd [5] of under 60 nM and a stoichiometry N [5] of 4.
